Starred links: 1 amine or outer side, 2 acyl side, 3 side chain; linkers in the order of their positions; H or OH if unused. Non-standard residues stand in square brackets, D forms with d. Groups on a side chain read outwards from the residue. No end group written: not given here. *: point of attachment. C20 diacid = O=C(O)CCCCCCCCCCCCCCCCCCC(=O)*; C18 diacid = O=C(O)CCCCCCCCCCCCCCCCC(=O)*; γGlu = O=C(O)[C@H](CCC(=O)[*:2])N[*:1]; εLys = N[C@@H](CCCCN[*:1])C(=O)[*:2]; AEEA = NCCOCCOCC(=O)O; Aib = CC(C)(N)C(=O)O; Ahx = NCCCCCC(=O)O
B1: Compound 275 (peptide)
peptide: YXEGTFTSDYSIXLEKQAQXEFVEWLIKGGPSEGASLRHYYNWLTRQRY
modifications: Aib at 2, 13, 20; K28 side chain acylated with C20DA-gGlu-gGlu-gGlu-gGlu-gGlu-gGlu-eLys; C-terminal amide (NH2)
B2: Compound 277 (peptide)
peptide: YXEGTFTSDYSIXLEKQAQXAFVEWLIKGGPSEGASLRHYYNWLTRXRY
modifications: Aib at 2, 13, 20; bHGln (beta-homo-L-glutamine) at 47; K28 side chain acylated with C20DA-gGlu-gGlu-gGlu-gGlu-gGlu-gGlu-eLys; C-terminal amide (NH2)
B3: Compound 267 (peptide)
peptide: Y[Aib]EGTFTSDYSI[Aib]LEKQAQ[Aib]AFVQWLIK([εLys-γGlu-γGlu-γGlu-γGlu-γGlu-C18 diacid])GGPSEGASLRHYYNWLTRQRY-NH2
modifications: also: TFA salt
B4: Compound 272 (peptide)
peptide: Y[Aib]EGTFTSDYSI[Aib]LEKQAQ[Aib]AFVEWLIK([γGlu-γGlu-γGlu-γGlu-C18 diacid])GGPEEGASLRHYYNWLTRQRY-NH2
modifications: also: TFA salt
B5: Compound 271 (peptide)
peptide: Y[Aib]EGTFTSDYSI[Aib]LEKQAQ[Aib]EFVEWLIK([γGlu-γGlu-γGlu-γGlu-C20 diacid])GGPSEGASLRHYYNWLTRQRY-NH2
modifications: also: TFA salt
B6: Compound 274 (peptide)
peptide: Y[Aib]EGTFTSDYSI[Aib]LEKQAQ[Aib]EFVEWLIK([AEEA-γGlu-γGlu-γGlu-C18 diacid])GGPSEGASLRHYYNWLTRQRY-NH2
modifications: also: TFA salt
B7: Compound 278 (peptide)
peptide: Y[Aib]EGTFTSDYSI[Aib]LEKQAE[Aib]AFVEWLIKGGPSEGASLRHYYNWLTRQRY-NH2
modifications: not fully specified (residue 28); also: TFA salt
B8: Compound 276 (peptide)
peptide: Y[Aib]EGTFTSDYSI[Aib]LEKQAQ[Aib]EFVEWLIK([γGlu-γGlu-γGlu-γGlu-C18 diacid])GGPSEGASLRHYYNWLTRQRY-NH2
modifications: also: TFA salt
B9: Compound 273 (peptide)
peptide: Y[Aib]EGTFTSDYSI[Aib]LEKQAQ[Aib]EFVEWLIK([AEEA-AEEA-γGlu-γGlu-γGlu-C20 diacid])GGPSEGASLRHYYNWLTRQRY-NH2
modifications: also: TFA salt
B10: Compound 279 (peptide)
peptide: Y[Aib]EGTFTSDYSI[Aib]LEKQAQ[Aib]EFVEWLIK([Ahx-γGlu-γGlu-γGlu-γGlu-γGlu-γGlu-C18 diacid])GGPSEGASLRHYYNWLTRQRY-NH2
modifications: also: TFA salt
B11: Compound 268 (peptide)
peptide: Y[Aib]EGTFTSDYSI[Aib]LEKQAQ[Aib]AFVQWLIK([γGlu-γGlu-γGlu-γGlu-C18 diacid])GGPSEGASLRHYYNWLTRQRY-NH2
modifications: also: TFA salt
B12: Compound 269 (peptide)
peptide: Y[Aib]EGTFTSDYSI[Aib]LEKQAQ[Aib]AFVQWLIK([AEEA-AEEA-γGlu-γGlu-γGlu-γGlu-C20 diacid])GGPSEGASLRHYYNWLTRQRY-NH2
modifications: also: TFA salt
B13: Compound 270 (peptide)
peptide: Y[Aib]EGTFTSDYSI[Aib]LEKQAQ[Aib]AFVQWLIK([AEEA-AEEA-γGlu-γGlu-γGlu-γGlu-C18 diacid])GGPSEGASLRHYYNWLTRQRY-NH2
modifications: also: TFA salt

Tests used:
Assay in all cases: cell-based or functional assay
[1] = target: human GLP-1 receptor (human, UniProt P43220 24-463)
[2] = target: T1, human GIP receptor (human, UniProt P48546 22-466)
T1 sequence (looked up): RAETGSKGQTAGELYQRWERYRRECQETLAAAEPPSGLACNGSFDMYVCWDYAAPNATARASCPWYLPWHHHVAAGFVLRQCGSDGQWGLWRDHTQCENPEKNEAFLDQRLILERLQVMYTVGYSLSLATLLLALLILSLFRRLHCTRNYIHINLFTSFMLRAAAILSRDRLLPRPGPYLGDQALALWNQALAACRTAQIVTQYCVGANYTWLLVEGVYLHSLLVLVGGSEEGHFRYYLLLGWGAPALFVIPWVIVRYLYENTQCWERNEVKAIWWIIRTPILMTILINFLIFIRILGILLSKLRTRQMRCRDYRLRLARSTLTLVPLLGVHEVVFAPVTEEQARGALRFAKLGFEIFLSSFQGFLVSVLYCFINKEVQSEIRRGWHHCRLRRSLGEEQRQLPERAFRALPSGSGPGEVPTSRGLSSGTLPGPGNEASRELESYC

[3] = target: T2, human neuropeptide Y2 receptor (human, UniProt P49146 1-381)
T2 sequence (looked up): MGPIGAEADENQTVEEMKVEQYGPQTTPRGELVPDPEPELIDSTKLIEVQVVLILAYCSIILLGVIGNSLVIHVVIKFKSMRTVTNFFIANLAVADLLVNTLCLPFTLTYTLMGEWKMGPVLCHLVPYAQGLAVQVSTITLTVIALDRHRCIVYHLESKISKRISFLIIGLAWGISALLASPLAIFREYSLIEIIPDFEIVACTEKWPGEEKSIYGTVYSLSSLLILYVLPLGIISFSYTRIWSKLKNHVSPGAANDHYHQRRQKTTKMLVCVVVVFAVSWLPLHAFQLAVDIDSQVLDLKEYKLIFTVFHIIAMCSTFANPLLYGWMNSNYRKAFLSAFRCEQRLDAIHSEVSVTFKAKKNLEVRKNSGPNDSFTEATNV

| Binder | EC50 hGLP1R 0.5% hP (CreLuc) [1] | EC50 hGLP1R 100% hP (CreLuc) [1] | EC50 hGIPR 0.5% hP (CreLuc) [2] | EC50 hGIPR 100% hP (CreLuc) [2] | EC50 hNPY2R 0.5% hP (CreLuc) [3] | EC50 hNPY2R 100% hP (CreLuc) [3] |
| --- | --- | --- | --- | --- | --- | --- |
| B1 | 0.5 nM | 21.7 nM | 0.27 nM | 1.75 nM | 19.9 nM | 60 nM |
| B2 | 0.19 nM | 1.29 nM | 0.11 nM | 0.68 nM | > 99.9 nM | 1120 nM |
| B3 | 0.07 nM | 1.44 nM | 0.12 nM | 1.18 nM | 9.25 nM | 27.6 nM |
| B4 | 0.31 nM | 15.6 nM | 0.24 nM | 3.01 nM | 23.8 nM | 113 nM |
| B5 | 0.53 nM | 21.4 nM | 0.62 nM | 2.62 nM | 16.1 nM | 80 nM |
| B6 | 0.41 nM | 17.6 nM | 0.23 nM | 1.78 nM | 18.1 nM | 74.6 nM |
| B7 | 0.56 nM | 13 nM | 0.14 nM | 1.38 nM | 17.5 nM | 88.6 nM |
| B8 | 0.35 nM | 16.7 nM | 0.37 nM | 1.82 nM | 20.7 nM | 73.7 nM |
| B9 | 0.75 nM | 19.2 nM | 0.38 nM | 1.52 nM | 19.3 nM | 76.3 nM |
| B10 | 0.72 nM | 13.4 nM | 0.71 nM | 1.76 nM | 32.4 nM | 103 nM |
| B11 | 0.08 nM | 1.55 nM | 0.17 nM | 1.01 nM | 9.86 nM | 47.3 nM |
| B12 | 0.14 nM | 3.86 nM | 0.46 nM | 1.23 nM | 9.56 nM | 32.5 nM |
| B13 | 0.07 nM | 1.69 nM | 0.12 nM | 0.71 nM | 9.52 nM | 21.1 nM |

Source: US20240247080A1, “GLP1/GIP/NPY2 RECEPTOR TRIPLE AGONISTS” (Boehringer Ingelheim International GmbH, priority 2022, published 2024)
